Measured values reported in paper PMC9371921, “Strand annealing and motor driven activities of SMARCAL1 and ZRANB3 are stimulated by RAD51 and the paralog complex” (Nucleic Acids Research, 2022).

How the values were obtained:
[1] = target: T1, SMARCAL1 F439 F→A variant (human, UniProt Q9NZC9 1-954, F439 (F→A variant)); experiment: pull-down; MBP-RAD51 (bait) from bacterial soluble extract bound to amylose resin and washed; purified FLAG-SMARCAL1, FLAG-ZRANB3 or FLAG-BCDX2 (1 μg, prey) in 150 μl IP buffer (25 mM Tris-HCl pH 7.5, 100 mM NaCl, 3 mM EDTA, 0.5 mM DTT, BSA, 10% glycerol), 1 h at 4°C; eluted with maltose; Western blot with anti-MBP and anti-FLAG; details: both partners purified
T1 construct: human SMARCAL1 with F439 disrupted; the methods call the variants SMARCAL1 F→A variants; construct as m1; The text says only 'disruption of F439'; also called disruption of F439; source: Sf9, purified similarly as the wild type
T1 sequence (looked up): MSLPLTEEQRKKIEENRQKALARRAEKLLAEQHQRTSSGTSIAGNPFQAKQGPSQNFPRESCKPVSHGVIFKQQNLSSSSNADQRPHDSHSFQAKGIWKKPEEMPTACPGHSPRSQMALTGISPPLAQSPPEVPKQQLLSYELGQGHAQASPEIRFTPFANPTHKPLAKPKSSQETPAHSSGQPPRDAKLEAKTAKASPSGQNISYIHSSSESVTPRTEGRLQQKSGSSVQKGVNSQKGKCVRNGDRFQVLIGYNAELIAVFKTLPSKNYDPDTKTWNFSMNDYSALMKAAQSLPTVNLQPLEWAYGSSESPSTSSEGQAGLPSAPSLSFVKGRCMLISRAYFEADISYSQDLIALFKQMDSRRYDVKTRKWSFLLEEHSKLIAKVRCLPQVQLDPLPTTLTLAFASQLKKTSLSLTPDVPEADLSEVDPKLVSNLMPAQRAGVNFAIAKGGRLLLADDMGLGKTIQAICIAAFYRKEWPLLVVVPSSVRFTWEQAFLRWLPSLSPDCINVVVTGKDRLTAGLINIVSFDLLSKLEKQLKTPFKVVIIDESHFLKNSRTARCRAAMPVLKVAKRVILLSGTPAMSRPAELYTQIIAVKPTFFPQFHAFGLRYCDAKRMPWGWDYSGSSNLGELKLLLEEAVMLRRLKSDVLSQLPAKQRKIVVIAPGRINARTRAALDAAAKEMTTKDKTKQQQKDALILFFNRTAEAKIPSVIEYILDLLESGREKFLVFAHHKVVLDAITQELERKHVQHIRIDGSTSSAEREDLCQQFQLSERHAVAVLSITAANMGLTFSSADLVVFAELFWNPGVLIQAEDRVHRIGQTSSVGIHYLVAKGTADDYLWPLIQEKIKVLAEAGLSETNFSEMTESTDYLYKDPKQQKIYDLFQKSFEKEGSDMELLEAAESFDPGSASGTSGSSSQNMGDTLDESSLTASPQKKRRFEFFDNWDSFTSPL

ZRANB3 F47A = target: T2, ZRANB3 F47A (human, UniProt Q5FWF4 1-1079, F47A); experiment: pull-down; ZRANB3 F→A variants and RAD51 (Supplementary Figure S4); the methods tell two set-ups (MBP-RAD51 on amylose resin with purified FLAG-ZRANB3; FLAG-ZRANB3 variants from Sf9 soluble extract on anti-FLAG resin with purified RAD51) and the text does not tell which was used for which variant; 100 mM NaCl, 1 h at 4°C; details: both partners purified
T2 construct: human ZRANB3 with F47A; construct as m2; also called F47A substitution mutant; source: Sf9, expressed and purified similarly as the wild type
T2 sequence (looked up): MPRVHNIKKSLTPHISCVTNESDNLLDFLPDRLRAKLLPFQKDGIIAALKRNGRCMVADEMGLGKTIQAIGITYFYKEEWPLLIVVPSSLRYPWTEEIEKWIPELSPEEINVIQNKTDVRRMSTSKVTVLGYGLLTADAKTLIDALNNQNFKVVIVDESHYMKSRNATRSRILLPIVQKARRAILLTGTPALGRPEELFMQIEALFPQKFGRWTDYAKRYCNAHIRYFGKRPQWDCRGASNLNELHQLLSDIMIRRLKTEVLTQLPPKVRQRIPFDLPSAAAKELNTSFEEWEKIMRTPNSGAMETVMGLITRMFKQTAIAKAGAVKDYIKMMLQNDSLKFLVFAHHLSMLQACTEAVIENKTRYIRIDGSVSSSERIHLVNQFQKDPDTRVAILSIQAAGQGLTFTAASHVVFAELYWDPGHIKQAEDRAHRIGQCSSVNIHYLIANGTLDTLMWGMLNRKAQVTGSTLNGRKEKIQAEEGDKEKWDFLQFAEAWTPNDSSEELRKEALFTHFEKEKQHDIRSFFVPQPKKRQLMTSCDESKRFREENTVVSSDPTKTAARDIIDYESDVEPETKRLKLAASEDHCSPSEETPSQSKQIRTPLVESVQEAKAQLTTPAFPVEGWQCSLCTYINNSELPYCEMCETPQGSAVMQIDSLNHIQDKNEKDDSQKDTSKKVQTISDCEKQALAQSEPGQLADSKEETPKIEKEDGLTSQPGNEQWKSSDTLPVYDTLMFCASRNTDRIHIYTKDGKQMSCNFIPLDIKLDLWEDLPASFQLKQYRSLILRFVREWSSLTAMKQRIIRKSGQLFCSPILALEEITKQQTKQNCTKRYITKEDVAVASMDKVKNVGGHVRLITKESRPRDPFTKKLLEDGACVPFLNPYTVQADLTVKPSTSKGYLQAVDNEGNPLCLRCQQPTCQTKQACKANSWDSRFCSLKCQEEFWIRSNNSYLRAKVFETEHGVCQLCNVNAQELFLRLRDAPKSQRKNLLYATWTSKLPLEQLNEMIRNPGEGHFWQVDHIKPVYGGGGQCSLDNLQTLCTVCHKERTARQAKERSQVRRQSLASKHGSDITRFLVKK

binding result [1]: binds
binding result (ZRANB3 F47A): binds
B1: MBP-RAD51 (natural protein, human, UniProt Q06609 1-339, looked up)
chain: MAMQMQLEANADTSVEEESFGPQPISRLEQCGINANDVKKLEEAGFHTVEAVAYAPKKELINIKGISEAKADKILAEAAKLVPMGFTTATEFHQRRSEIIQITTGSKELDKLLQGGIETGSITEMFGEFRTGKTQICHTLAVTCQLPIDRGGGEGKAMYIDTEGTFRPERLLAVAERYGLSGSDVLDNVAYARAFNTDHQTQLLYQASAMMVESRYALLIVDSATALYRTDYSGRGELSARQMHLARFLRMLLRLADEFGVAVVITNQVVAQVDGAAMFAADPKKPIGGNIIAHASTTRLYLRKGRGETRICKIYDSPCLPEAEAMFAINADGVGDAKD
notes: In the pull-downs the MBP tag was kept; the RAD51 of the DNA annealing assays was the same construct with the MBP cut off by PreScission protease and purified on HiTrap Q; not shown: MBP, N-terminal, kept
